We go through two substances from publication PMC4020817.

The target in data set [1] is recombinant APOBEC3A (rA3A) (human) (UniProt P31941). Kind of data set: SEC; rA3A without concentration on a Superose-12 gel filtration column (FPLC) with protein standards, in the buffer used for measuring deaminase activity; fractions immunoblotted with anti-A3A antibody. (In general: SEC sorts molecules by how far they enter the pores of the column.)
Data set [2] has as its system rA3A wild type (Homo sapiens). The data set is described as follows: fluorescence binding titration. The conditions noted are these: EMSA: 0.5 pmol oligo, 2 ug rA3A in 10 ul deaminase buffer (composition not given), 4 C, 1 h, 6% native PAGE. Intrinsic fluorescence: 225 nM rA3A, 25 mM Tris pH …. For orientation: A gel shift assay detects complexes by their altered migration in electrophoresis.

The target of data set [3] is A3A E72A/delWG104-5 E72A;del104-105 (Homo sapiens) (UniProt P31941). Kind of data set: extrinsic fluorescence titration. Conditions: EMSA: 0.5 pmol oligo, 2 ug rA3A in 10 ul deaminase buffer (composition not given), 4 C, 1 h, 6% native PAGE. Intrinsic fluorescence: 225 nM rA3A, 25 mM Tris pH ….
Sequence of A3A E72A/delWG104-5 E72A;del104-105 (Homo sapiens) (P31941 other isoform, or with tags, fused parts or gaps E72A E72A): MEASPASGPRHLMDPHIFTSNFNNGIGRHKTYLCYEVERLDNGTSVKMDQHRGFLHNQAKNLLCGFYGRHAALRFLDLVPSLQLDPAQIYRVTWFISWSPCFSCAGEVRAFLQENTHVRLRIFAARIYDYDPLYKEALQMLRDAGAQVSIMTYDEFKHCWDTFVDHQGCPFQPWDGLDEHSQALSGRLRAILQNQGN

Sequence of recombinant APOBEC3A (rA3A), P31941 1-199 (enzyme; other documents disagree on this pair) (P31941 whole entry): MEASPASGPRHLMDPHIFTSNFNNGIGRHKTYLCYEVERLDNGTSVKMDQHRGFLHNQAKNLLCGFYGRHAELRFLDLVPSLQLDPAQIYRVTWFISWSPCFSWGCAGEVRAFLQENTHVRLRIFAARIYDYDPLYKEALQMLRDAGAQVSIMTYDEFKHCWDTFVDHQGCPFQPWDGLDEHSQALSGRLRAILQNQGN

One may read the stoichiometry N as a count of units in the complex or per binding partner. Turning to “recombinant APOBEC3A (rA3A), P31941 1-199 (enzyme; other documents disagree on this pair)”, the stoichiometry N in data set [1] turned out to be 2.

One may read the Kd as the equilibrium constant for the complex coming apart. High values mean weaker binding, low ones tighter binding. In turn, ssDNA oligo of fluorescence Kd assays gave a Kd in data set [2] of 158 nM. Also, the binding signal (fold higher affinity than wild type) in data set [3] came out at 3.
